Results: article doi:10.1101/2023.06.05.543781

What was measured:
[1] = molecular target: VAMP2 (mouse) (UniProt P63044)
[2] = molecular target: Syntaxin1 (rat) (UniProt P32851)
[3] = molecular target: Munc13-1 C1-C2B-MUN-C2C domain (rat) (UniProt Q62768)

Chain of UniProt P63044 (P63044 whole entry): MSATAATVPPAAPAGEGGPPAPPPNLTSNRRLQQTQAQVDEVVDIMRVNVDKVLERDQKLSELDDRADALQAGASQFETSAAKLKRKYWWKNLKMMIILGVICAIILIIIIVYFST
Chain of UniProt P32851 (P32851 whole entry, the tested form may be a part): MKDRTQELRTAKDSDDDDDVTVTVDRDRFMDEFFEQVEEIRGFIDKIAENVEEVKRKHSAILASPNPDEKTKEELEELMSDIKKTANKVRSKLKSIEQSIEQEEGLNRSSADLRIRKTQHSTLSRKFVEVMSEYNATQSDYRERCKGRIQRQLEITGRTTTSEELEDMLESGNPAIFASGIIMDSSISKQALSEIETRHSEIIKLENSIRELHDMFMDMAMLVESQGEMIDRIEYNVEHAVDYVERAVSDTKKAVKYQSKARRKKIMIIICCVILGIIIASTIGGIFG

“Munc13-1 C1-C2B-MUN-C2C domain D1358K (from UniProt Q62768 529-1407; Q62768 1453-1735) (domain or fragment)” gave a Ca^2+ (100 μM)-evoked fusion of the immobile, clamped vesicles, with 500 nM DHG [1] of 20%.
With “Munc13-1 C1-C2B-MUN-C2C domain N1128A/F1131A (from UniProt Q62768 529-1407; Q62768 1453-1735) (domain or fragment)” the Ca^2+ (100 μM)-evoked fusion of the immobile, clamped vesicles, with 500 nM DHG [2] was 20%.
Work on “SNAP25 linker mutant with residues 113-138 replaced by a GGGGS repeat sequence (from UniProt P60879 1-112; P60879 139-206) (natural protein)” yielded a Ca^2+ (100 μM)-evoked fusion of the immobile, clamped vesicles, with 500 nM DHG [3] of 20%.
